B1: Cell adhesion molecule-related/down-regulated by oncogenes (Rattus norvegicus (Rat)), O35158 (parent)
chain: MHPDLGPLWKLLYVLVILCSSVSSDLATYFISEPLSAVQKLGRPVVLHCSAKPVTARISWLHNGKRLDRNTEQIKIHRGTLTILSLNPSLSGCYQCVANNSVGAVVSGPATVSADALADFDSSTMHVITAEKKNTGFIGCRVPESNPKAEVRYKIRGKWLMYSTGNYIILPSGNLQILNVSSKDKGSYKCAAYNPVTSELKVEPAGRKLLVSRPSSDGFHILHPALSQALAVLPHSPVTLECVVSGVPASQVYWLKDGQDCLSGSNWRRLYSHLATASIDPADSGNYSCVVGNNSSGDVKHVTYTVNVLEHASISKGLHDQKVSLGATVRFTCEVHGNPAPNRTWFHNAQPIRPSSRHLTEGSVLKITGVIMEDSGLYQCMADNGIGFMQSTGRLQIEQDSGQRPVIVTAPANVEVTDGDFVTLSCNATGEPVPVIHWYGRHGLITSHPSQVLRSKSRKSHLFRPGDLDPEPVYLIMSQAGSSSLSIQAVTREHAGKYTCEAVNKHGSTQSEAFLTVVPFETNTKAEPVTPSEASQNDERDPRDGSESGLLNLFPVKVHSGGVELPAEKNASVPDAPNILSPPQTHMPDTYTLVWRTGRDGGMPINAYFVKYRKLDDGSGAVGSWHTVRVPGSESELHLTELEPSSLYEVLMVARSAVGEGQPAMLTFRTSKEKMASSKNTQASFPPVGIPKRPVTSEASNSNFGVVLTDSSRHSGVPEAPDRPTISMASETSVYVTWIPRANGGSPITAFKVEYKRMKSSDWLVAAEDIPPSKLSVEVRSLEPGSIYKFRVIVINHYGESFRSSASRPYQVAGFPNRFSNRPITGPHIAYTEAVSDTQIMLKWTYIPSSNNNTPIQGFYIYYRPTDSDNDSDYKRDVVEGSKQWHTIGHLQPETSYDIKMQCFNEGGESEFSNVMICETKVKRVPGASEYPMKELSTPPSSSGNGGNVGPATSPARSSDMLYLIVGCVLGVMVLILLVFIALCLWKSRQQSAIQKYDPPGYLYQGSEINGQMVEYTTLSGTARINGSVHGGFLSKGSLSNGCSHLHHKGPNGVNGILNGTINGGLYSAHTSSLTRTCVEFEHPHHLVNGGAVYTAVPQMDPLECINCRNCRNNNRCFTKTNSPLPVVPVVASYPQDGLEMKPLGVMKFPVCPVSTVPDGGQIPEECLKDSVAPAPTQRTCRQDNTSDINSDSTEDTAEFNRGDSSGHSEAEDKVFSWSPLILSPVLEDCSEKTAWSPPGPPLDGLSVVLQQAQET
partner: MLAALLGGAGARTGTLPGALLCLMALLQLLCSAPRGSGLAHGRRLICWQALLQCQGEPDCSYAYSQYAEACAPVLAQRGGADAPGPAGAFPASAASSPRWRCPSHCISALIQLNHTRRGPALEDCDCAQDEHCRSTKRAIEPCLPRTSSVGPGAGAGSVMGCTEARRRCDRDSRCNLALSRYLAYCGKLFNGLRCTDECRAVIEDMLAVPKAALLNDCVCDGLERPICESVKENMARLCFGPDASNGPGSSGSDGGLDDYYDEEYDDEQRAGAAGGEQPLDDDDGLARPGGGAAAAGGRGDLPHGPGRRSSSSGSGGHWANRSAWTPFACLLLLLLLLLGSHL
B2: Cell adhesion molecule-related/down-regulated by oncogenes (Rattus norvegicus (Rat)), O35158 (parent)
chain: B1 chain
partner: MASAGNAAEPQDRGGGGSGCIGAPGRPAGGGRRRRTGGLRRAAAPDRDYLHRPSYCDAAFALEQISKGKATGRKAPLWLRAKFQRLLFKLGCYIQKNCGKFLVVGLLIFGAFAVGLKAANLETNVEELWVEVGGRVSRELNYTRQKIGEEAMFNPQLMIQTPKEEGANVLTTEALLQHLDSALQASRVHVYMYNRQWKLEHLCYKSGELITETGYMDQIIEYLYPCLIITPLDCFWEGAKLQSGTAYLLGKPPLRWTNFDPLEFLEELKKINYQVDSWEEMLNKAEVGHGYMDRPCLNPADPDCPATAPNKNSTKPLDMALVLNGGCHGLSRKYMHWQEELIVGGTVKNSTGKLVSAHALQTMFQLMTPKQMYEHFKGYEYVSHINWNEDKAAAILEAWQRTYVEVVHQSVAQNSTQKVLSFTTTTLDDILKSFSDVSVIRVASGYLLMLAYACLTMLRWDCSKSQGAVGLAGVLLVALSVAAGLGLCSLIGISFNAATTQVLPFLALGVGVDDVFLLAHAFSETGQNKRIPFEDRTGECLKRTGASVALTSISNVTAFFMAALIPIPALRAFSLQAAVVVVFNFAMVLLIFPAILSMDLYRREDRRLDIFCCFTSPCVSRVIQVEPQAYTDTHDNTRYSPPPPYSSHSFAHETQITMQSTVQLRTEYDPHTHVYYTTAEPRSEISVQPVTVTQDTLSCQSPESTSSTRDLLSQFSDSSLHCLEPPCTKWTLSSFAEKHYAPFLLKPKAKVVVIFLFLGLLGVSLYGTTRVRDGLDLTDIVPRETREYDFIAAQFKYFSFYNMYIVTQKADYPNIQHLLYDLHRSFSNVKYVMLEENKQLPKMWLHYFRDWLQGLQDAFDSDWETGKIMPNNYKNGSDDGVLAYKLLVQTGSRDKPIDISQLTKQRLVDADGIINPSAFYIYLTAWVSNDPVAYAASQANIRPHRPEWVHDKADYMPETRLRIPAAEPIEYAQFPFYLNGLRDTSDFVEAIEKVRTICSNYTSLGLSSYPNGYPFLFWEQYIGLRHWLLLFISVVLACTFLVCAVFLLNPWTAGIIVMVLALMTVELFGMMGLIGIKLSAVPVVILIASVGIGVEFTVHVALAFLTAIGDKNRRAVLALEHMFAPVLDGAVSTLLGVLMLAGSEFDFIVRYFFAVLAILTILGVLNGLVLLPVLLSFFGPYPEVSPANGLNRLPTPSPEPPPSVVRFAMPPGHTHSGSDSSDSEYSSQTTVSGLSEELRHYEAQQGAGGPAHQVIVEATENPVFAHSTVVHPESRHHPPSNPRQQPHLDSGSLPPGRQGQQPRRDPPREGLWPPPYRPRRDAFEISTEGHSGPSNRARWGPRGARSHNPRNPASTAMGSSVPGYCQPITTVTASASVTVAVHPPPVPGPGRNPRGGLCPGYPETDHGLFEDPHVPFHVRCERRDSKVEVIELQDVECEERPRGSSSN
B3: Cell adhesion molecule-related/down-regulated by oncogenes (Rattus norvegicus (Rat)), O35158 (parent)
chain: B1 chain
partner: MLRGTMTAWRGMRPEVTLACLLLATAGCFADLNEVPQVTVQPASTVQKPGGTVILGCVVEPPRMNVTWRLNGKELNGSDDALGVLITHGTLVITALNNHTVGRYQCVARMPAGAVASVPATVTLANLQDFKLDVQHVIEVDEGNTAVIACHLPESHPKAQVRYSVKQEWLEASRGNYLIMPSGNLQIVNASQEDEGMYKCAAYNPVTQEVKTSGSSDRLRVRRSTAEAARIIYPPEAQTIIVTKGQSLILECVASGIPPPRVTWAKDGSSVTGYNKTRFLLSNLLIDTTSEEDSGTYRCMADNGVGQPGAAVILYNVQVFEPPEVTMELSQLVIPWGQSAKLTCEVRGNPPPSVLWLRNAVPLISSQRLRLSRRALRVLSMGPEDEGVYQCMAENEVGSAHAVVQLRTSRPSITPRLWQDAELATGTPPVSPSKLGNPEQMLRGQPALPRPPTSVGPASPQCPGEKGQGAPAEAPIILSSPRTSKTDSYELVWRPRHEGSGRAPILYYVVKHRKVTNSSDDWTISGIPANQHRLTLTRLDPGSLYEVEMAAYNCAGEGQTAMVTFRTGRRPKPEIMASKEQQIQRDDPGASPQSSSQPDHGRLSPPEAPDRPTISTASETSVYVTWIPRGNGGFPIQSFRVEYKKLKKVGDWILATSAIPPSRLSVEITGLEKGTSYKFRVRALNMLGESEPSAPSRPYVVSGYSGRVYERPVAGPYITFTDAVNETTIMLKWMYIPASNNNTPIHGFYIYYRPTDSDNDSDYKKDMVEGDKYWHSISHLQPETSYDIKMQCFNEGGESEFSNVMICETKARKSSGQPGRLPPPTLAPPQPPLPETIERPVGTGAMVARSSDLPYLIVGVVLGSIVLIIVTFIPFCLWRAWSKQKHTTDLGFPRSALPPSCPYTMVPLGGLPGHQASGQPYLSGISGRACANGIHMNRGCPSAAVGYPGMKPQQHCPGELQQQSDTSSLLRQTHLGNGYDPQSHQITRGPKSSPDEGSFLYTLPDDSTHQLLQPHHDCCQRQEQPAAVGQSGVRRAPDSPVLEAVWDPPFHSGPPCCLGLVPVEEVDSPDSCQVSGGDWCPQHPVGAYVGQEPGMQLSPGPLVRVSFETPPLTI

Variants of: B1
Conditions: with gas1_mouse Gas1, Q01721

| effect of a mutation on the interaction | Variant |
| --- | --- |
| with no effect | V688M |
| decreasing interaction strength | S937R |
| decreasing interaction strength | I787A |
| with no effect | T681S |
| decreasing interaction strength | P686A |
| with no effect | V777E |

Variants of: B2
Conditions: with ptc1_human PTCH1, Q13635

| effect of a mutation on the interaction | Variant |
| --- | --- |
| decreasing interaction strength | P686A |
| decreasing interaction strength | S937R |
| decreasing interaction strength | I787A |
| decreasing interaction strength | V777E |
| with no effect | T681S |
| decreasing interaction strength | V688M |

Variants of: B3
Conditions: with boc_human BOC

| effect of a mutation on the interaction | Variant |
| --- | --- |
| with no effect | T681S |
| decreasing interaction strength | P686A |
| with no effect | I787A |
| with no effect | V688M |
| with no effect | S937R |
| with no effect | V777E |

— IntAct's records for PubMed 21802063
